T1: HsRXRAΔAB (retinoid X receptor alpha without the A/B domain) (human (printed as HsRXRAΔAB; the same …, UniProt P19793 126-462)
T1 construct: A/B domain removed; In the rows of this molecule it stood as a subunit of the RAR/RXR heterodimer; Vector pET28b; also called RXRα; MmRXRAΔAB; source: E. coli BL21 (DE3), purified (HisTrap HP, thrombin cleavage, SEC Superdex 75); not shown: His6, N-terminal, cleaved
T1 sequence (looked up): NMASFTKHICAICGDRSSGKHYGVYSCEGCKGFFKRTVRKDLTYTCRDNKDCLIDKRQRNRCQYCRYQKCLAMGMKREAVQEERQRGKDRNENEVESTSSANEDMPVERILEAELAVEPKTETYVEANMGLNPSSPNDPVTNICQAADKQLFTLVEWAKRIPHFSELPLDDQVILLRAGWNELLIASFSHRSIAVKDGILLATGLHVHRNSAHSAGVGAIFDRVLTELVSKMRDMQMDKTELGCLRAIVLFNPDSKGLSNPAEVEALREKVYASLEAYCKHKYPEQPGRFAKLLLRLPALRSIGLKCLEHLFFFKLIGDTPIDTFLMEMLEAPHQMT

B1: DR1 idealized (dsDNA)
DNA 1: CTAGGTCAAAGGTCAGC
DNA 2: GCTGACCTTTGACCTAG
B2: RAR/RXR heterodimer (RARAΔABF with RXRAΔAB) (complex)
chain 1: PRIYKPCFVCQDKSSGYHYGVSACEGCKGFFRRSIQKNMVYTCHRDKNCIINKVTRNRCQYCRLQKCFDVGMSKESVRNDRNKKKKEAPKPECSESYTLTPEVGELIEKVRKAHQETFPALCQLGKYTTNNSSEQRVSLDIDLWDKFSELSTKCIIKTVEFAKQLPGFTTLTIADQITLLKAACLDILILRICTRYTPEQDTMTFSDGLTLNRTQMHNAGFGPLTDLVFAFANQLLPLEMDDAETGLLSAICLICGDRQDLEQPDKVDMLQEPLLEALKVYVRKRRPSRPHMFPKMLMKITDLRSISAKGAERVITLKMEIPGSMPPLIQEMLENSEGLD
chain 2: T1 sequence (looked up)
notes: retinoic acid receptor alpha, residues 82-421 of Uniprot entry P11416; as the chain of m1; as the chain of m2; 1:1 heterodimer by SEC-MALS; this is told in the format of each assay; also called RR–DR0; source: E. coli BL21 (DE3); RAR and RXR purified separately, mixed (2-fold excess of RAR), heterodimer purified by SEC (Superdex 200); not shown: His6, N-terminal, cleaved
B3: MmRARAΔABF (retinoic acid receptor alpha without the A/B and F domains) (domain or fragment, UniProt P11416 82-421, looked up)
chain: B2 chain 1
notes: retinoic acid receptor alpha, residues 82-421 of Uniprot entry P11416 (DBD, hinge and LBD; A/B and F domains removed); In the rows of this molecule it stood as a subunit of the RAR/RXR heterodimer; Vector pET15b; also called RARα; NR1B1; source: E. coli BL21 (DE3), purified (HisTrap HP)
B4: NCoRNID (nuclear receptor interaction domain of the Nuclear receptor CoRepressor) (domain or fragment, UniProt Q60974 2059-2325, looked up)
chain: QVPRTHRLITLADHICQIITQDFARNQVPSQASTSTFQTSPSALSSTPVRTKTSSRYSPESQSQTVLHPRPGPRVSPENLVDKSRGSRPGKSPERSHIPSEPYEPISPPQGPAVHEKQDSMLLLSQRGVDPAEQRSDSRSPGSISYLPSFFTKLESTSPMVKSKKQEIFRKLNSSGGGDSDMAAAQPGTEIFNLPAVTTSGAVSSRSHSFADPASNLGLEDIIRKALMGSFDDKVEDHGVVMSHPVGIMPGSASTSVVTSSEARRDE
notes: Unlabelled form used for SEC-MALS, SEC-SAXS and HDX-MS; also called NCOR1
B5: DR5 Rarb2 (dsDNA)
DNA 1: AGGGTTCACCGAAAGTTCACT
DNA 2: AGTGAACTTTCGGTGAACCCT
B6: DR0 Hoxb13 Cy5 (dsDNA)
DNA 1: GAAGGTCAAGGCCAAG
DNA 2: CTTGGCCTTGACCTTC
B7: IR0 Trim16 (dsDNA)
DNA 1: GCAGGGTCATGACCCCGC
DNA 2: CGCGGGGTCATGACCCTG
B8: IR0 Trim16 Cy5 (dsDNA)
DNA 1: GCAGGGTCATGACCCCGC
DNA 2: CGCGGGGTCATGACCCTG
B9: DR5 Rarb2 Cy5 (dsDNA)
DNA 1: AGGGTTCACCGAAAGTTCACT
DNA 2: AGTGAACTTTCGGTGAACCCT
B10: DR1 idealized Cy5 (dsDNA)
DNA 1: CTAGGTCAAAGGTCAGC
DNA 2: GCTGACCTTTGACCTAG

What was measured:
[1] = molecular target: RARalpha dAB dF;RXRalpha dAB;NCoR NID (Mus musculus / Homo sapiens (Methods …, UniProt P11416;P19793;Q60974 82-421;126-462;2059-2325, ||)); assay: SEC-SAXS, HDX-MS; BMS493; Fluorescence anisotropy: 20 mM Tris-HCl pH 7.5, 75 mM NaCl, 75 mM KCl, 2 mM CHAPS, 4 mM MgCl2, 2 mM TCEP, 10% glycerol, 0.5 nM Cy5-DNA, 4 uM ligands, 294 K; conditions: protein: recombinant;recombinant;recombinant, tags: N-terminal His6 (pET15b), copies: 1;1;1
[2] = molecular target: Alexa488-labeled TIF-2NRID; assay: fluorescence polarisation; steady-state fluorescence anisotropy; RR–DR5 titrated against 10 nM Alexa488-TIF-2NRID with 12 μM AM580 and CD3254; same buffer
[3] = molecular target: TIF-2NRID (nuclear receptor interaction domain of the transcriptional intermediary factor 2); assay: SEC; with SDS–PAGE; complexes of RR–DNA and TIF-2NRID formed in the presence of both agonists (AM580, CD3254)
[4] = molecular target: B4; assay: SEC-MALS; with SDS–PAGE; complexes of RR–DNA and NCoRNID formed in the presence of BMS493; conditions: both partners purified
[5] = molecular target: NCoRNID mut2 (point mutations designed to disrupt the helical folding of the IR region) (UniProt Q60974); assay: MST; RR–DR5 with BMS493; heterodimer titrated against labelled NCoRNID; same buffer, 22°C
[6] = molecular target: NCoRNID mut2 (point mutations designed to disrupt the helical folding of the IR region) (UniProt Q60974); assay: MST; RAR/RXR bound to DR5 DNA (RR–DR5), no ligand (apo); heterodimer titrated against labelled NCoRNID; same buffer, 22°C
[7] = molecular target: Alexa488-labeled TIF-2NRID; assay: fluorescence polarisation; steady-state fluorescence anisotropy; RR–DR1 titrated against 10 nM Alexa488-TIF-2NRID with 12 μM AM580 and CD3254; same buffer
[8] = molecular target: Alexa488-labeled TIF-2NRID; assay: fluorescence polarisation; steady-state fluorescence anisotropy; RR–DR0 titrated against 10 nM Alexa488-TIF-2NRID with 12 μM AM580 and CD3254; same buffer
[9] = molecular target: Alexa488-labeled TIF-2NRID; assay: fluorescence polarisation; steady-state fluorescence anisotropy; RAR/RXR without DNA titrated (from 4 μM, 2-fold dilutions) against 10 nM Alexa488-TIF-2NRID with 12 μM AM580 and CD3254; 20 mM Tris–HCl pH 7.5, 75 mM NaCl, 75 mM KCl, 2 mM CHAPS, 4 mM MgCl2, 5 mM DTT, 10% glycerol
[10] = molecular target: Alexa488-labeled TIF-2NRID; assay: fluorescence polarisation; steady-state fluorescence anisotropy; RR–IR0 titrated against 10 nM Alexa488-TIF-2NRID with 12 μM AM580 and CD3254; same buffer
[11] = molecular target: NCoRNID mut1 (IR region replaced by a fully disordered segment) (UniProt Q60974); assay: MST; RAR/RXR bound to DR1 DNA (RR–DR1), no ligand (apo); heterodimer titrated against labelled NCoRNID; same buffer, 22°C
[12] = molecular target: T1, HsRXRAΔAB (retinoid X receptor alpha …); assay: SEC-MALS; purified RAR/RXR heterodimer; single peak, molecular weight matching the heterodimer; conditions: both partners purified
[13] = molecular target: T1, HsRXRAΔAB (retinoid X receptor alpha …); assay: HDX-MS; RAR/RXR and RR–DNA (DR0, DR1, DR5, IR0) with and without NCoRNID, with BMS493; 4°C, 20 μM complex diluted 10-fold into deuterated buffer pD 7.5; 4 s to 10 800 s; RAR and RXR read as subunits of the heterodimer; conditions: both partners purified
[14] = molecular target: T2, RARalpha dAB dF;RXRalpha dAB (Mus musculus / Homo sapiens (Methods …, UniProt P11416;P19793 82-421;126-462, |)); assay: fluorescence anisotropy; BMS493; Fluorescence anisotropy: 20 mM Tris-HCl pH 7.5, 75 mM NaCl, 75 mM KCl, 2 mM CHAPS, 4 mM MgCl2, 2 mM TCEP, 10% glycerol, 0.5 nM Cy5-DNA, 4 uM ligands, 294 K; conditions: protein: recombinant;recombinant, tags: N-terminal His6 (pET15b), copies: 1;1, label: Cy5 on forward strand
[15] = molecular target: T2, RARalpha dAB dF;RXRalpha dAB; assay: fluorescence anisotropy; apo; Fluorescence anisotropy: 20 mM Tris-HCl pH 7.5, 75 mM NaCl, 75 mM KCl, 2 mM CHAPS, 4 mM MgCl2, 2 mM TCEP, 10% glycerol, 0.5 nM Cy5-DNA, 4 uM ligands, 294 K; conditions: protein: recombinant;recombinant, tags: N-terminal His6 (pET15b), copies: 1;1, label: Cy5 on forward strand
[16] = molecular target: T2, RARalpha dAB dF;RXRalpha dAB; assay: fluorescence anisotropy; AM580 + CD3254; Fluorescence anisotropy: 20 mM Tris-HCl pH 7.5, 75 mM NaCl, 75 mM KCl, 2 mM CHAPS, 4 mM MgCl2, 2 mM TCEP, 10% glycerol, 0.5 nM Cy5-DNA, 4 uM ligands, 294 K; conditions: protein: recombinant;recombinant, tags: N-terminal His6 (pET15b), copies: 1;1, label: Cy5 on forward strand
[17] = 5' overhang 1 nt at both ends (so in the source)

Binder: B1
- binding result ([1]; blunt): binds

Binder: B2
- Kd [2]: 27.7 nM
- stoichiometry N [3]: 1
- stoichiometry N [4]: 1
- Kd [5]: 538 nM
- Kd [6]: 576 nM
- Kd [7]: 30.1 nM
- Kd [8]: 55.1 nM
- Kd [9]: 126 nM
- Kd [10]: 22.7 nM
- Kd [11]: 347 nM

Binder: B3
- stoichiometry N [12]: 1

Binder: B4
- binding result [13]: binds

Binder: B5
- binding result ([1]; blunt): binds

Binder: B6
- Kd ([14]; blunt): 101 ± 48.1 nM
- Kd ([15]; blunt): 33.5 ± 16.4 nM
- Kd ([16]; blunt): 24.1 ± 17.3 nM

Binder: B7
- binding result [1, 17]: binds

Binder: B8
- Kd [14, 17]: 29.1 ± 24.2 nM
- Kd [15, 17]: 1.9 ± 1.3 nM
- Kd [16, 17]: 3.8 ± 3.1 nM

Binder: B9
- Kd ([14]; blunt): 15 ± 2 nM
- Kd ([15]; blunt): 1.7 ± 0.8 nM
- Kd ([16]; blunt): 2.4 ± 0.9 nM

Binder: B10
- Kd ([14]; blunt): 24.6 ± 5 nM
- Kd ([15]; blunt): 6.1 ± 2.2 nM
- Kd ([16]; blunt): 8.7 ± 2.9 nM
